Assays:
[1] = biological target: RNA polymerase holoenzyme (alpha2 beta beta' omega sigma70) (Escherichia coli, UniProt P0A7Z4;P0A8V2;P0A8T7;P0A800;P00579 1-329;1-1342;1-1407;1-91;1-613); assay: EMSA; 40-160 nM holoenzyme; single-copy (M) complex; EMSA buffer D (1x): 20 mM Tris-acetate, 10 mM Mg acetate, 50 mM K acetate, 1 mM DTT, pH 7.8; native PAGE in 0.5x TBE running buffer; 37 C for the tac and slyD template reactions, otherwise temperature not stated; conditions: protein: native; chain copies: 2;1;1;1;1; label: 5'-32P
[2] = biological target: RNA polymerase core enzyme (alpha2 beta beta' omega) (Escherichia coli, UniProt P0A7Z4;P0A8V2;P0A8T7;P0A800 1-329;1-1342;1-1407;1-91); assay: EMSA; 40-160 nM core; tandem (D) complex; EMSA buffer D (1x): 20 mM Tris-acetate, 10 mM Mg acetate, 50 mM K acetate, 1 mM DTT, pH 7.8; native PAGE in 0.5x TBE running buffer; 37 C for the tac and slyD template reactions, otherwise temperature not stated; conditions: protein: native; chain copies: 2;1;1;1; label: 5'-32P

B1: short DNA probe (Fig 2E) (mixed)
DNA: CGCGCCAACAGCGACATCAAATTTGTCGCC
binding result [1]: binds | binding result [2]: binds

Source: publication PMC3080401, “Oligomerization of the E. coli Core RNA Polymerase: Formation of (α2ββ'ω)2–DNA Complexes and Regulation of the Oligomerization by Auxiliary Subunits”
